{"source": "IntAct's records for PubMed 25893917", "parents": {"B1": {"name": "Twist-related protein 1 (Mus musculus), P26687 (parent)", "chain": "MMQDVSSSPVSPADDSLSNSEEEPDRQQPASGKRGARKRRSSRRSAGGSAGPGGATGGGIGGGDEPGSPAQGKRGKKSAGGGGGGGAGGGGGGGGGSSSGGGSPQSYEELQTQRVMANVRERQRTQSLNEAFAALRKIIPTLPSDKLSKIQTLKLAARYIDFLYQVLQSDELDSKMASCSYVAHERLSYAFSVWRMEGAWSMSASH", "partner": "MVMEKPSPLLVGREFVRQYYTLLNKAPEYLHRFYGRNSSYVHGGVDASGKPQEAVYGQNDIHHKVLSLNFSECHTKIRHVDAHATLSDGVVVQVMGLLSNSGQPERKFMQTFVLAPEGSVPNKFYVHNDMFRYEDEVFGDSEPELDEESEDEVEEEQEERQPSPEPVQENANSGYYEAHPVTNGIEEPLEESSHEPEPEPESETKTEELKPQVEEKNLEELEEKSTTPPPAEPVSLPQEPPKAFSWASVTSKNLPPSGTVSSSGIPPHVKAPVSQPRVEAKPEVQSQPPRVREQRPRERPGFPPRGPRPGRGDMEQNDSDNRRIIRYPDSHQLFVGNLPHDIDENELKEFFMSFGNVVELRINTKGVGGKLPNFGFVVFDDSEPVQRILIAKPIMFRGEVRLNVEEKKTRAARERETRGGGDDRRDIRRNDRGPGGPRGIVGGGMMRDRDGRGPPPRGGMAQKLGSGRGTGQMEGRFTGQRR"}}}
{"variants_of": "B1", "conditions": "with G3BP2, Q9UN86"}
{"variant": "Y107E", "effect of a mutation on the interaction": "decreasing interaction strength"}
